Assay results taken from publication PMC2647316 (Nucleic Acids Research, 2008).

Target: T1, GkDnaC R344A (Geobacillus kaustophilus HTA426, UniProt Q5KU75 1-454, R344A)
T1 sequence: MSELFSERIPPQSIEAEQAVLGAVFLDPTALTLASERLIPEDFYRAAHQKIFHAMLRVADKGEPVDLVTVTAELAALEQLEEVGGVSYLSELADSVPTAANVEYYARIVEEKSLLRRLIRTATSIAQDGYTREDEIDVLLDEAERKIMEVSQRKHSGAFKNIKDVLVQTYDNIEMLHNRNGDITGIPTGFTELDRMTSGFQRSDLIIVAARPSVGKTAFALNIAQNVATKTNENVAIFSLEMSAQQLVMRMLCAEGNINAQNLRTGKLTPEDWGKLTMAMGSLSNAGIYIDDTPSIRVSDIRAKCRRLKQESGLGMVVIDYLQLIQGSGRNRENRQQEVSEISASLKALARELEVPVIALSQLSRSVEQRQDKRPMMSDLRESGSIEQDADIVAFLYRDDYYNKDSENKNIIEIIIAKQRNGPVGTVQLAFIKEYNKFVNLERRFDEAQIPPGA
Assay: SPR

TTTTTTTTTTTTTTTTTTTTTTTTTTTTTT (ssDNA) [5'Bio-(dT)30] was tested, and the Kd was 17.9 µM.
